Measurements taken from the supplement of paper PMC9170038.

Test system: MS2 coat protein
Experiment: apparent KD of MS2 coat protein; designed switch direction (-1 OFF switch, 1 ON switch): -1; higher = weaker reporter binding
Outline: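 Normalised cluster fluorescence was curve-fitted, and each design's median over clusters is its apparent KD. Before this, SNAP-549-labelled MS2 coat protein was titrated from 0.7 or 1.5 nM, doubling to 3 µM, over RNA switches transcribed on Illumina chips by stalled E. coli RNA polymerase. Titrations had no input, 200 uM small-molecule ligand, or an oligonucleotide input, and steps lasted 0.8–1.5 h (lowest) to 10–20 min (highest).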

[1] = input ligand: microRNA oligo, concentration not stated
[2] = Eterna round: R95, input ligand: microRNA oligo, concentration not stated
[3] = Eterna round: R95, input ligand: FMN 200 uM
[4] = Eterna round: R95, input ligand: none

Row | Sequence | apparent KD of MS2 coat protein (input ligand: FMN 200 uM) [nM] | apparent KD of MS2 coat protein (input ligand: none) [nM] | apparent KD of MS2 coat protein [1] [nM] | apparent KD of MS2 coat protein [2] [nM] | apparent KD of MS2 coat protein [3] [nM] | apparent KD of MS2 coat protein [4] [nM]
1 | UAAAGUAUAUAGGAUAUCUAGCUGGAAACAGCUAGAGAAGGAUGUACAUGAGGAUCACCCAUGUAAAACCUCAA [Ex6/17-A1] (Eterna round: R97, puzzle: Exclusion 6) | 45.4 | 18.3 |  |  |  | 
2 | ACAAGCUUUGUUGGGUGGUACAUGAGGAUCACCCAUGUUGCGCUCGUCUUGUGGGCCCGGGCCCGCGGCCCGGGCCC [-41.5, -69.6, A 12%] (Eterna round: R97, puzzle: Sensor, turn-off variant 1) | 545 | 663 |  |  |  | 
3 | CUUGUUUAUGUAGGAUAUGCCUGGCGUGCCUUUGCAGAAGGACAUGAGGAUCACCCAUGUAACAUGAGGCUCACCCAUGUCGCG [salish99_ExNG1_r04_105] (Eterna round: R96, puzzle: Exclusion NG 1) | 293 | 327 | 213 |  |  | 
4 | CUUUUGUGAGGAUAUCAGUAGUAAAAUAAUAAAUAUACUACUGAGAAGGCACAUGAGGAUCACCCAUGUUCCUC [Mat - Exclusion 4 - Mod of Salish - D74] (puzzle: Exclusion 4) |  |  |  | 35 |  | 
5 | CGGCAACAUGAGGAUCACCCAUGUUAGGAUAUCGGUGGCUGACACGAAACAGGACCGGUGAGAAGGAGUAUGGU [Eternabot (L1) Solution 2] (Eterna round: R97, puzzle: Exclusion 1) | 39 | 39.2 |  |  |  | 
6 | UGGUAACAUGAGGAUCACCCAUGUCAGGAUAUCAGUAAGAAUAGAUUAGAGUAGAAGAUGAGAAGGGACUAUAU [Excluse me! 6 - Jieux - Exclusion 1] (puzzle: Exclusion 1) |  |  |  | 33.8 |  | 
7 | GGGUGCAGGCUGAGGUCCUACAUGAGGAUCACCCAUGUGGUCCGGUGACGUGGGUCGCCGGACUUGGCUCGUCUUGU [salish99_S_TOV1_R5_012] (Eterna round: R97, puzzle: Sensor, turn-off variant 1) | 39 | 48.6 |  |  |  | 
8 | AGUAACAGAGGAUAUACUAUUUUAUGUAUUUAUUAUUUUAAACAUGAGGAUCACCCAUGUAGAAGGCUGAAUGA [JMF 97] (puzzle: Exclusion 2) |  |  |  | 21.1 |  | 
9 | AGAAGACAUGAGGAUCACCCAUGUAAGGAUAUCGAAGGUAAGAGAGGAAAGAAGUUAACGAGAAGGUACAGGUG [JR_Exclu1_Sub097] (puzzle: Exclusion 1) |  |  |  | 123 | 101 | 116
10 | AACAAGGUAGGAUAUACAUGAGGAUCACCCAUGUCCCACCCGUUACCUAUGACCAUAUGUAGAAGGACCAAUAA [Exy#6] (Eterna round: R97, puzzle: Exclusion 3) | 16.7 | 17.8 |  |  |  | 
11 | CUCCUCAUGACGCCUAAACACAUGAGGAUCACCCAUGUACAGGCUUUUUGUCGUCUUAUAAUAAAACCGAGGAUACG [Orlaorusti] (puzzle: Sensor v3, turn-off variant 1) |  |  |  | 116 | 20.2 | 23.2
12 | ACAAGCUUUUAGAUUUUCAACAUGAGGAUCACCCAUGUUCGUCUUAGGCGAGUGCGAGUGCGGUGUACUCGUAUUAG [JL TOV1 3.85 sellena mod] (Eterna round: R97, puzzle: Sensor, turn-off variant 1) | 22.2 | 21.9 |  |  |  | 
13 | AAUACAAGCUAUUGAUCCCACAUGAGGAUCACCCAUGUAGGAGGCGGUGACACCUCCUUUACGAUAGCUCGUCUUAU [Sensor-V1 #53] (Eterna round: R97, puzzle: Sensor, turn-off variant 1) | 213 | 219 |  |  |  | 
14 | GAUCCUUCUGUUAGGAUAUGCUUUGGGCUUCCGCAGCAGAAGGAACAUGAGGAUCACCCAUGUCAAAUACCAUC [salish99_bmex4_r4_503] (Eterna round: R97, puzzle: Brourd's mod of Exclusion 4) | 23.1 | 23.1 |  |  |  | 
15 | UAUUAGCAAGUGAGAUCCGACAUGAGGAUCACCCAUGUGCUCGUCUUAUAAGCUAAUAUAAGAAAACUUAUAUUAGC [Elimod 7 - Jieux - Sensor, turn-off variant 1] (Eterna round: R97, puzzle: Sensor, turn-off variant 1) | 242 | 284 |  |  |  | 
16 | AAACGGCAGGGAGGAUAUGCUUACCUGGGUCGUCUUCAAACAUGAGGAUCACCCAUGUAGUCGACGCAGAAGGCCCUCAAAGCC [JL ViennaUCT Ontiis mod] (Eterna round: R96, puzzle: Exclusion NG 2) | 144 | 18.6 | 18 |  |  | 
17 | UGUUGUUACGUAGGAUAUCCACCAACAGGUGGAAGGAUAUGGAAACAGAAGGUUCGCCAACAGGCGGAGAAGGACGGGUUAACA [pwkr exNG2 2xF7 2xFMN.22] (Eterna round: R96, puzzle: Exclusion NG 2) | 42.5 | 32.3 | 11.5 |  |  | 

Row | Sequence | apparent KD of MS2 coat protein (input ligand: FMN 200 uM) [nM] | apparent KD of MS2 coat protein (input ligand: none) [nM] | apparent KD of MS2 coat protein [1] [nM] | apparent KD of MS2 coat protein [2] [nM] | apparent KD of MS2 coat protein [3] [nM] | apparent KD of MS2 coat protein [4] [nM]
18 | CGCAACACAUGAGGAUCAAACAUGAGGAUCACCCAUGUAAAACAAGCUUUUUGCUCGUCUUAUAAAUAUGUGUUGCG [Electric Eye 1 - Jieux - Sensor, turn-off variant 1] (Eterna round: R97, puzzle: Sensor, turn-off variant 1) | 18.4 | 21 |  |  |  | 
19 | GCUUUUCUUUUCCUUUCUUACAUGAGGAUCACCCAUGUUUCUUGUCGCGCUCGCGUUGCUCGUCUGUCUGUCUGUUG [salish99_TOv1_r3_079] (puzzle: Sensor v3, turn-off variant 1) |  |  |  | 28.9 | 43.1 | 54.7
20 | CACCUGAAGACAGGAUAUCAUACAUGAGGAUCACCCAUGUAAUAAAUGAGAAUUUCGAAUGUAAUUGAGAAGGGUCGAUAAGGC [Ostricism 91 - Jieux - Exclusion NG 2] (Eterna round: R96, puzzle: Exclusion NG 2) | 78.9 | 30.6 | 30.6 |  |  | 
21 | GAAAAGUAAGGAUAUGUCCACAGUGAGGAAACUCACUGUGGACAGAAGGUACAUGAGGAUCACCCAUGUUCCUC [ExDelusion 4 - Jieux - Exclusion 4] (Eterna round: R97, puzzle: Exclusion 4) | 577 | 44.2 |  |  |  | 
22 | UACAGUCAUCCUUAUUGUUACAUGAGGAUCACCCAUGUUAGUAUAGUUAAGUUAUGUGAGUUUGUUGUUCGUUUUAU [JR_STOV1_v2_Sub078] (Eterna round: R97, puzzle: Sensor, turn-off variant 1) | 125 | 146 |  |  |  | 
23 | GAUAGAGAGCAGGAUAUCUUGGAUAAGUAUUGUAGAGAAGGGCUCACAUGAGGAUCACCCAUGUGGUCCUAGAU [JL Dibiri mod 10] (puzzle: Exclusion 6) |  |  |  | 14.8 |  | 
24 | UAUAUAUAGUAAGGAUAUGUAUUUAUUUUAUAGACAGAAGGUACUGACAUGAGGAUCACCCAUGUUUUAGUGUGGGCAUGUAGA [JMF's solution 27] (Eterna round: R96, puzzle: Exclusion NG 1) | 122 | 94.4 | 78.5 |  |  | 
25 | AAGAUGUGAGGAUAUCACGAAGGCGUCAAACUGACGCCUUCUGAGAAGGCACAUGAGGAUCACCCAUGUCCAAA [EX4 A.23] (Eterna round: R97, puzzle: Exclusion 4) | 325 | 58.6 |  |  |  | 
26 | UAACAGUAAGGAUAUCCAGAUCCAGACAUGAGGAUCACCCAUGUCAUAUACCUUUGACACGGAGAAGGUACGAAAA [EX5 A.4] (Eterna round: R97, puzzle: Exclusion 5) | 52.3 | 52.2 |  |  |  | 
27 | UUUUAACAUGAGGAUCACCCAUGUGAGGAUAUGAUUUUUUUUUUUUUUUUUUUUUUUUUCAGAAGGCACAUUUU [My solution] (puzzle: Exclusion 1) |  |  |  | 64.3 | 18 | 42.4
28 | UUAUUACAAGCAAGAUCCCACAUGAGGAUCACCCAUGUGCUCGUCUUAUAAGGUACUGUGACGAAAGUCACGGUACC [Sensor 3, v1 - 100] (Eterna round: R96, puzzle: Sensor v3, turn-off variant 1) | 26.3 | 24.6 | 547 |  |  | 
29 | CCAAGCUUUUUCAUUAACAACAUGAGGAUCACCCAUGUGUAAGCAAUUAUGUUUGGGCUCUUUAGUGCUCGUCUUAU [JR_STOV1_Sub042] (Eterna round: R97, puzzle: Sensor, turn-off variant 1) | 17.4 | 16.7 |  |  |  | 
30 | AAAAGAAGUGUUAGGAUAUGUGGAAGCAGAAAGACACAGAAGGAACAUGAGGAUCACCCAUGUGACCAAAGAAC [Maenonis] (puzzle: Brourd's mod of Exclusion 4) |  |  |  | 15.8 | 27.1 | 15.3
31 | CUACUGUGAGGAUAUGGUGAGUAGUGCCUGAGCGCUGCUCACCAGAAGGCACAUGAGGAUCACCCAUGUAUGAC [JL-ex4-2.03 denovo] (puzzle: Exclusion 4) |  |  |  | 43.5 |  | 
32 | GGUUGUUUUUUCCGUUCUUACAUGAGGAUCACCCAUGUUUCUUGUCGUGCUCGCGUUGCUCGUCUGUCUGUCUGUUG [salish99_TOv1_r3_073] (puzzle: Sensor v3, turn-off variant 1) |  |  |  | 34.3 | 48.5 | 56
33 | GCAGCAAACCCAAUUAAAACCACAUGAGGAUCACCCAUGUCUCAGGAUAUGGUCUGGAUUACAGGCCAGAAGGGAGAAAGCUGC [Eli exng3 - 052] (Eterna round: R96, puzzle: Exclusion NG 3) | 16.2 | 17.7 | 10.7 |  |  | 
